The results in this text go back to paper PMC3319578, “Talin Contains A C-Terminal Calpain2 Cleavage Site Important In Focal Adhesion Dynamics” (PLoS ONE, 2012).

The data set deals with the molecule itself. Nature of the data set: SEC; analytical gel filtration, Superdex-75 (10/300), room temperature, 20 mM Tris pH 8.0, 150 mM NaCl, 2 mM DTT, 0.8 ml/min. Background: SEC sorts molecules by how far they enter the pores of the column.

Substitutions are numbered along the chain they refer to. In names and notes the source's numbering stands.

B1: talin1 2300–2541 polypeptide (C-terminal actin-binding site and dimerisation domain), wild type (domain or fragment, mouse, UniProt P26039 2300-2541, looked up)
chain: DPTVIAENELLGAAAAIEAAAKKLEQLKPRAKPKEADESLNFEEQILEAAKSIAAATSALVKAASAAQRELVAQGKVGAIPANALDDGQWSQGLISAARMVAAATNNLCEAANAAVQGHASQEKLISSAKQVAASTAQLLVACKVKADQDSEAMKRLQAAGNAVKRASDNLVKAAQKAAAFEDQENETVVVKEKMVGGIAQIIAAQEEMLRKERELEEARKKLAQIRQQQYKFLPSELRDEH
notes: Cloned into pET-151/D-TOPO; dimer by gel filtration; also called talin 2300–2541; ABS-DD; source: E. coli, purified (Ni-NTA, TEV cleavage, Resource-Q)
For the protein B1, the “stoichiometry N” value was 2.

B2: talin1 2300–2541 E2492G mutant (domain or fragment, mouse, UniProt P26039 2300-2541, looked up)
chain: B1 chain with E193G
notes: talin1, mouse, residues 2300–2541 with E2492G; Dimer by gel filtration; also called E2494G (as printed once in the text); source: E. coli, purified (Ni-NTA, TEV cleavage, Resource-Q)
As to B2, the “stoichiometry N” value is 2.

The stoichiometry N is a count of units in the complex or per binding partner.
